{"source": "the DeepSol protein solubility set"}
{"experiment": "soluble on expression in E. coli; label from the status in PepcDB or PDB records"}
{"sequence": "MGSDKIHHHHHHMQWFENPLFSERVEFLESSQYWPAERHAVYQLRSLRRLVHHVAAHVPFYRDFMAASGIRPEDILSIEDIKRFPIIDKKVIQAQPEAFLADGSDRATLLHRTTGGSTGTPLTVWFDGDLLARDKANTEHYMRAIGLDIFTWKSIRLYGDKIDPEITDTGRYWKLVDGRRLVMSCYHITHETAPAYVAELNRFRPRYIHTRPSSILPLAKYILQDGLALDPIRTIVSDGEYLTDGQRAVIERAFQGRLYNIYGHTEACVVGHPCHHSDGLHLMPQVGVTELLDEQGRDVTEPGGRGELVVTGFNNPVMPLIRYRTGDVAYLGEGGCRCGRHYQMLKGIEGRLQDYVIDAAGNPTPLAPAVFNYNDMDWKGIKEFKVIQDTPGELTILIVLEAELAADPAGSKAVLEQRIGAILAGFRISITLVDDIPKTKIGKHRYLDQRLDVKELVSFR", "soluble on expression in E. coli": "not soluble"}
{"sequence": "MKFDPQKYRELAEKDFEAAWKAGKEILAERSPNELYPRVGFSFGKEHPLFATIQRLREAYLSIGFSEVVNPLIVEDVHVKKQFGREALAVLDRCFYLATLPKPNVGISAEKIRQIEAITKREVDSKPLQEIFHRYKKGEIDGDDLSYLIAEVLDVDDITAVKILDEVFPEFKELKPISSTLTLRSHMTTGWFITLSHIADKLPLPIKLFSIDRCFRREQGEDATRLYTYFSASCVLVDEELSVDDGKAVAEALLRQFGFENFRFRKDEKRSKYYIPDTQTEVFAFHPKLVGSSTKYSDGWIEIATFGIYSPTALAEYDIPYPVMNLGLGVERLAMILYGYDDVRKMVYPQIHGEIKLSDLDIAREIKVKEVPQTAVGLKIAQSIVETAEKHASEPSPCSFLAFEGEMMGRNVRVYVVNENENTKLCGPAYANEVVVYKGDIYGIPKTKKWRSFFEEGVPTGIRYIDGFAYYAARKVEEAAMREQEEVKVKARIVENLSDINLYIHENVRRYILWKKGKIDVRGPLFVTVKAEIE", "soluble on expression in E. coli": "soluble"}
{"sequence": "MRAELQAETEAERLERQAKLHELLHRLRGEPNVLLPFHQALALRPRGERHLGLRTIEVDKVVGSVDRYEDFDHRFLPKTPHTLERWKRLRALQLAGAEFPPIEVYQVGEAYFVKDGNHRVALAKATGQKFIDAHVIALDVPVPIEPGDTPKDLLLKAEYAHFLEKTRLKDLVPGAEEIRFTALGRYDRLLDHIATRRYFKGLEEGREISWEEAVVDWYENLYKPTVEAIRRLGLLRDFPGRTEADLYLWVMDHRYFLARELGVDPGPEGAAKSYEAHFGGVWKRLGGGLKRLLTGR", "soluble on expression in E. coli": "soluble"}
{"sequence": "MASVGIFFGSDTGNTEAIAKMIQKQLGKKLVHVQDIAKSSKEDINNFDLLLLGIPTWYYGEAQCDWDDFFPELEAIDFSTKLVAIFGCGDQEDYAEYFCDAMGTVRDIIQAKGATIVGHWPTEGYEFEASKALVDENHFVGLCIDEDRQPELTEQRVTKWVNQVYEEMCLAELED", "soluble on expression in E. coli": "not soluble"}
{"sequence": "METKKIAGVLVTMVAPFENHMANGGEKLFGNASSIKRRPDGRVYVSGQMQRHVLFSAIDRLNHLDKAKGTTFVSNGDGITNLIEIDLRADLGGFMHTNKGDYSDRRIAPLSVTPATALDTSSVGRDLLVRIRFDKSSDAKNQALATREYSEQDKMNMNFFLDITSVGVSKSFVYKDGLNLGTKYFKHITDDEKKRRVKLFLEATRIMNDYANQARNAVCGEPEKVLIVFDDRLSRKACRYYTVGEKEQANIIKELDQYQVKYFVGDDASDYSVADAYRDAMNYLDKATLVDFAEGEEIMTFAEAFECKEKEPQEKKSKKGKDKATSAQNLFAEQQDDQ", "soluble on expression in E. coli": "not soluble"}
{"sequence": "MKELRVKNQYEKHKEVEAAQGVKILGKDLEKTLAGLPLLVAYKDDEIPVLKDELIHELKQTLNAIKLEEKGVYVQASTLGSLEALLEFLKTSEVPYAGINIGPVHKKDVMKASVMLEHDPQYAVILAFDVRIERDAQEMADSLGVRIFSAEIIYHLFDAFTKYRQDYKKQKQEEFKHIAVFPCKMKILPQYIFNSRDPIVIGVTVEAGQVKQGTPMCVPSKNFVDIGIVTSIEINHKQVDVAKKGQEVCVKIEPIPGESPKMFGRHFEATDILVSKISRQSIDALKDWFRDEMQKSDWQLIVELKKVFEII", "soluble on expression in E. coli": "soluble"}
{"sequence": "ALTSNASGTFDGYYYELWKDTGNTTMTVYTQGRFSCQWSNINNALFRTGKKYNQNWQSLGTIRITYSATYNPNGNSYLCIYGWSTNPLVEFYIVESWGNWRPPGATSLGQVTIDGGTYDIYRTTRVNQPSIVGTATFDQYWSVRTSKRTSGTVTVTDHFRAWANRGLNLGTIDQITLCVEGYQSSGSANITQNTFSQSS", "soluble on expression in E. coli": "soluble"}
{"sequence": "MAHHHHHHMHTKHTRRPVDTHKRNTMPLIRPGMPKPPQGFDVVLAKLEEYDEQMKLATQEESKGVVGVTTRPRHSGGFGARKRMRDDDANAEDGTVAPPAEASSTVAAAESEAGTSTAGDDNAEAKEEPPIPPLWRMAAINRARTRYVFLAYYKQHIISKEVYDYCVDTRLIDGGLARRWRLPGYERLCCTACGVPGAASLAASITSKYALRDRQERRLTTSASQQRIHDTATCLCRVPAAQRRSKHFVACAACGCHGCCSADAMKGPKEGDGGEKTDKTREEPSVNAPGRGEA", "soluble on expression in E. coli": "not soluble"}
{"sequence": "MEELNKYKQEIKDNALKELDSTKKKINEEKKHWGDLPLTYMPISNGTMTREYAETEQFYSHVVNVKNILDSLFEEVENDIKRLDAIFCFNEYTVYGQEDIEQIKENIKNEYKTSVAHFSKLWEDIKAMSVLLRSCFNKTWDRHSEVTLLTVIQTLDESIKHRGGPNYDKNNDNFFLLRECGSALRECNTQIKMDEKNLIIRIINTKDLEGGFKKSLETLLNENESANFIKLLAEYLEGVNLNVDVQVLKENFFIFAQGIKQFYLNNVETLKD", "soluble on expression in E. coli": "not soluble"}
{"sequence": "GAMDGNMKEVTQLPEPQTASLAELQQMKLFLKLLKKQEKELKELERKGSKRREELLQKYSVLFLEPVYPRGLDSQVVELKERLEMELIHLGEEYHDGIRRRKEQHATEQTAKITELAREKQIAELKALKESSESNIKDIKKKLEAKRLDRIQVMMRSTSDKAAQERLKKEINNSHIQEVVQTIKLLTEKTARYQQKLEEKQAENLRAIQEKEGQLQQEAVAEYEEKLKTLTVEVQEMVKNYMKEVFPDGPE", "soluble on expression in E. coli": "soluble"}
{"sequence": "MGSDKIHHHHHHMRIALVTNTFLPLTGGGEFVVHHLGNQWSMQGHDVCVFNSLTAEVAHPEALYKVMRYKIMRGATRFGYHRFPWVNVSTRSLNRQINYFNPDFVSGHFSIPVALYLDNLKPKRIWSITSHGSDIVRNDVNSQRDQYDIDNKLANSLNNASSVIAISNSAKANLLDIGVKPSLIRVIPNGVELNRFKTKANTNIREMFNIPEHKKLVLTVGRNSLVKNLGLGINAVAEIAKSRSDIHYLIVGGGTSQLNETIINRGLRDTVTTCENLAGESLVAAYQQSDIFLSTSNYECCPLVILEAMASGLPIVATQVAGNVDLIDNEVNGLLVGRNNHMHIVNAITMLIADKRLCHSISTTNYDKVSDYSWDTVSRSYLELLQ", "soluble on expression in E. coli": "not soluble"}
{"sequence": "MSLIDYQEVLSRYRPTQEEENKLKIISDDIIRKINSICRSRGLRAEAVIVGSYAKGTNLRDGDLDIFIAFDRDYPEEIINTEGLHIGHAVIPNGREKYAEHPYVSGEIGGVKIDVVPCYKMSFGDKKISAVDRTLLHTEYVNGHLDEKGRDEVRLLKIFTKSIGVYGAEARTFGFSGYLCELLVIRFGSFENVIRYFSKAKGRVLIDLDERFRDPMVLIDPVDPDRNVASPVSLESLSRMKIASKMFLSSPDEGFFQIEHNGKNVQYHDRGTCIMIYSLPKPDLTDDVIYPQVYRFRSVLQKIMESHEIRVISSEIDVSDRIYVLIETPACAEERIRVHTGPPVDTDNAVDFVNSWKARDRSRGPYIVADRLYVDVFTGQRSIEDIVRQEIFNYSIGKNLDRFKKSMEIMKFNVGMKSLPVLDKFFGADVFRKEGHHHHHH", "soluble on expression in E. coli": "soluble"}
{"sequence": "MSKLPMLSQNPENIKILHTAADFRYELLKQIENAQQRIYIVALYLENDDAGREIFTALYEAKQKNPTLDINVLVDWHRAQRGLIGAEKSDGNAALYREFSEKYEHSINVLGVPVRNKEVFGVLHLKGFIFDDTVVYSGASLNDVYLAHKDKYRFDRYHVLNNALLANSMVSFIKKTLIASPAVNCLSQQNRPDTKSLKPEIKELRKQLGLANYQFTSQTRKEGEVGITPLVGLGRKGNKLNNYIRTLLASATSEITICTPYFNFPKPIAKELKKALRRGVKVTIIVGDKTANDFYISPEEEFKTIAGLPYLYEINLRNFAKANETYIASRQLSLNLWKHENNSFHLKGMWVDKEYTLITGSNLNPRAWKLDLENGLLLQDPEQLLVDTKQAELDVILEHTQLIGSYKQVDKLDSYPVEVKKLIKRIKRIKADHILNQILLEHHHHHH", "soluble on expression in E. coli": "soluble"}
{"sequence": "MKKYIITAFAFITLLTGSVTFTACEDIDDIKELNLDRLLSPTNLTARVRDKVNIELTWDEMDRAQSYVIEVFKEDPDFTGTAISTLESEKATYTVTGLEGETSYSIRVKSVAEGITDSKWVSATRSTDAEQILLEVAEEDLTASEVTLRWPAGQVATEIIITPNDVAAHRVTSDEIAAGAATIKNLKSETTYTATLKNGDKTRGTMVFTTLINLDGALPAYPGDNLATIIATAEANATIVLLPKDDNNSFIYTDESGTAKTLEIELTKDVTIKGLYAENRPTTNIKFVLSGCNNFKIENLNLTASDGGTIITVLDSKGGNITVTNCDVTGFGSLLVENDNTQTGTINTFTVDNCIFHDMASGKRFVDYQKKKSFIAEFTLKNSTFYNCCSGSDFIRFDRHSTKGNIINISNCTLYGIEATSKGLFYVRSNSVGNKDFTANITKCIFANMSNKVFFSQDTKTDNLTFNSNYYFEAPSLLSIPEGGAGKVVDATGVTLDPGFTDAANGNFKVSNQTIIDNEIGDPRWRK", "soluble on expression in E. coli": "soluble"}
{"sequence": "VADFRYNVGLNLSAVKNKAVKFSGDGPIQTGGFNSDQIIRNEDGGLISRFYGYVADGIFQNWDEVYAHTNENGKLVQSNAQPGDIRFKDLNHDGVLDENDKTWIGNPYPDLMVGLNLGFSYKNIDFTANFYGTFGNDIFNKTKGLYSGVSGQNVWTGTLQKAWHGEGTSNDIPRLSYNDLNQNYTRVSSFFVEDGSYMRCKLLQVGYTLPKKWLNGTELRLSLSAQNPFTITSYSGMDPERPQIGKDGSVIETGIDGIAYPNPRTFLFGIDLKF", "soluble on expression in E. coli": "not soluble"}
{"sequence": "GPGSMAEEIRTMIIGTSSAFRANVLREHFGDRFRNFVLLPPDIDEKAYRAADPFELTESIARAKMKAVLEKARQHSPPISGPAIALTFDQVVVKGDEVREKPLSTEQCRSFIASYSGGGVRTVATYALCVVGTENVLVAHNETETFFSKFGDDIVERTLERGACMNSAGGLVVEDEDMSRHVVRIVGTSYGVRGMEPAVVEKLLSQL", "soluble on expression in E. coli": "soluble"}
{"sequence": "MMMGEVQSLPSCGLHPRLLDALTLALAARPQEKAPGRYELQGDNVFMNVMQLTTQMPAEKKAELHEQYIDIQLLLTGVERIAFGMSGAARQCEEMHVEEDYQLCSQIVDEQTITLQAGMFAVFMPGEPHKPGCAVGEPDDIKKVVVKVRASLLAA", "soluble on expression in E. coli": "not soluble"}
{"sequence": "MPREYDNLICYKQLSIDDHGKLKFFLEKHSTKEGTWGKLSLSEGEIDFIFQNGLGQELSRIRLDKNNRQLSIPPASWHKIIPISASFNAQLGFYCKPHRYFNKKYGLTEVHRDLLYVYHTYLSHLGSLTTLDVGCGSGRNLLYLTQLGHIVTGIDINQTALENIQIIAQKENLSLLNILSQDLNQPQALAPDHYDFVCSTVTLQFLNASRIPSLLIELQEATKKNGYHFLVFPVQSELYSLPSSFTFLPKQEELYHFYQDSGWSILEYKESVGHLHKQDEMGRPVQGLFALLLAQKVLLEHHHHHH", "soluble on expression in E. coli": "not soluble"}
